Assay results from US20250263677A1, “BIOCATALYTIC USE OF NONHEME IRON PROTEINS FOR MOLECULAR FUNCTIONALIZATION” (The Johns Hopkins University, priority 2022, published 2025).
Where two headings read alike, the source gives them in different places.

What was measured:
[1] = Azidation reaction condition optimization with Sav HppD Az1 and Az2 (whole E. coli cells); type: biochemical
[2] = 1NF azidation with Sav HppD variants from directed evolution (whole E. coli cells); type: biochemical; conditions: OD600=10, 10 mM 1NF, 25 mM NaN3, 2.5 mM Fe2+; for TTN (total turnover): KPi pH 7.4, anaerobic, 24 hours
Method: FIGS. 9A-9C is a computational model of the Sav HppD active site, a reaction scheme, and a plot of total turnovers for various Sav HppD variants. […] The computational model was generated from protein database entry 1T47. FIG. 9B provides the azidation reaction scheme for the reaction screened with a high-throughput screening platform. FIG. 9C provides representative variants identified during the directed evolution of Sav HppD. Experiments were performed at analytical scale using suspensions of E. coli expressing Sav HppD variants (OD600=10), 10 mM substrate 1NF, 25 mM NaN3, 2.5 mM Fe^2+ in KPi buffer (pH 7.4) at room temperature under anaerobic conditions for 24 hours.
In a typical experiment, ferrous ammonium sulfate (20 μL, 100 mM in water), sodium azide (20 μL, 1 M in water), and N-fluoroamide substrate (20 μL, 1.5 M in DME) were added to E. coli harboring non-heme iron enzyme variant (400 μL, adjusted to the appropriate OD600) in a 2 mL screw top GC vial in an anaerobic chamber. The vial was capped and shaken at 680 rpm at room temperature for 24 hours. At the end of the reaction, the vial was opened and the reaction was quenched with 6 mL of a hexanes/ethylacetate solution (4:6 v/v) of internal standard 1,2,3-trimethoxybenzene (0.5 mM final concentration). The reaction mixture was transferred to a 15 mL centrifuge tube, vortexed (10 seconds, 3 times), then centrifuged (10,500×g, 5 min) to completely separate the organic and aqueous layers. An aliquot (200-300 μL) of the organic layer was used for product quantification via GCMS and enantioselectivity via chiral HPLC or chiral GC. The total turnover numbers (TTNs) reported are calculated with respect to non-heme iron enzymes expressed in E. coli and represent the total number of turnovers obtained from the catalyst under the stated reaction conditions.
A high-throughput screening (HTS) platform based on copper-catalyzed azide-alkyne cycloaddition (CuAAC) was utilized for Sav HppD variants, and provided reliable quantification of enzymatic azidation products with a coefficient of variation of 9% and a detection limit of 4 μM. With this HTS platform, more than 5,000 clones generated through error-prone PCR or site-saturation mutagenesis were evaluated.

[3] = Substrate scope of enzymatic azidation of N-fluoroamide substrates (whole E. coli cells); type: biochemical; conditions: across the substrates and conditions tested
Method: FIGS. 3A-3C is an illustration with reaction products generated from exemplary substrate compounds. […] Experiments were performed at analytical scale using suspensions of E. coli expressing Sav HppD variants in KPi buffer (pH 7.4) at room temperature under anaerobic conditions for 24 hours. The absolute configuration of enzymatically synthesized azidation product 1N was determined to be S via X-ray crystallography. The absolute configurations of all other azidation products were inferred by analogy. FIG. 3B summarizes a preparative scale synthesis and absolute configuration determination of product 1N. […]
In a typical experiment, ferrous ammonium sulfate (20 μL, 100 mM in water), sodium azide (20 μL, 1 M in water), and N-fluoroamide substrate (20 μL, 1.5 M in DME) were added to E. coli harboring non-heme iron enzyme variant (400 μL, adjusted to the appropriate OD600) in a 2 mL screw top GC vial in an anaerobic chamber. […] An aliquot (200-300 μL) of the organic layer was used for product quantification via GCMS and enantioselectivity via chiral HPLC or chiral GC. The total turnover numbers (TTNs) reported are calculated with respect to non-heme iron enzymes expressed in E. coli and represent the total number of turnovers obtained from the catalyst under the stated reaction conditions. […]

[4] = Kinetic analyses of 1NF azidation with purified Sav HppD protein variants; type: biochemical
Method: Kinetic analyses for wild-type Sav HppD, Az1, and Az2 mediated 1NF azidation were performed in an anaerobic chamber. Ferrous ammonium sulfate (10 μL, 100 mM in water) and sodium azide (10 μL, 1 M in water) were added to a buffer solution containing purified Sav HppD protein variant (20 M, 2.4 mL) and the solution was shaken at 600 rpm for 5 minutes. A 1,2-dimethoxyethane solution of N-fluoroamide substrate 1NF was added to the solution (final concentration ranging from 0.25 mM to 15 mM in reaction solution). An aliquot of 100 μL of the reaction mixture was removed at 3, 6, 9, 12, and 15 minutes and quenched by vortexing with 300 μL 6:4 EtOAc/hexanes solution containing 0.5 mM (final concentration) internal standard 1,2,3-trimethoxybenzene. After centrifugation at 12,000 rpm for 10 mins, an aliquot (200 μL) of the organic layer was taken for GCMS analysis for product quantification.

[5] = type: biochemical, E. coli
Method: The reactions were performed by adding ferrous ammonium sulfate (10 μL, 100 mM in water), sodium azide (10 μL, 1 M in water), and N-fluoroamide substrate 1NF (10 μL, 400 mM in DME) to E. coli harboring non-heme iron enzymes (400 μL, adjusted to OD600=40) in a 2 mL screw top GC vial. The vial was capped and shaken at 680 rpm at room temperature for 24 hours. At the end of the reaction, the vial was opened and the reaction was quenched with 0.8 mL of a hexanes/ethylacetate solution (4:6 v/v) of internal standard 1,2,3-trimethoxybenzene (0.5 mM final concentration). The reaction mixture was transferred to a 2 mL microcentrifuge tube, vortexed (10 seconds, 3 times), then centrifuged (14,000×g, 5 min) to completely separate the organic and aqueous layers. An aliquot (200-300 μL) of the organic layer was used for product quantification via GCMS and enantioselectivity via chiral HPLC or chiral GC.

[6] = 1NF (10 μL, 800 mM), OD600 = 10
[7] = 1NF (10 μL, 1.5M), Fe^2+ (20 μL, 100 mM), NaN3 (40 μL, 1M), OD600 = 10
[8] = 1NF (20 μL, 1.5M), Fe^2+ (20 μL, 100 mM), NaN3 (40 μL, 1M), OD600 = 10
[9] = 1NF (10 μL, 400 mM), Fe^2+ (10 μL, 100 mM), NaN3 (10 μL, 1M), OD600 = 10
[10] = 1NF (20 μL, 1.5M), Fe^2+ (20 μL, 100 mM), NaN3 (40 μL, 1M), OD600 = 40
[11] = whole E. coli cells OD600=40, 1NF, NaN3, Fe2+, 24 hours

B1: HppD Az1: sextuple mutant Sav HppD V189A F216A P243A N245Q Q255A L367I, SEQ ID NO: 2 (protein)
chain: MTQTTHHTPDTARQADPFPVKGMDAVVFAVGNAKQAAHYYSTAFGMQLVAYSGPENGSRETASYVLTNGSARFVLTSVIKPATPWGHFLADHVAEHGDGVVDLAIEVPDARAAHAYAIEHGARSVAEPYELKDEHGTVVLAAIATYGKTRHTLVDRTGYDGPYLPGYVAAAPIVEPPAHRTFQAIDHCAGNVELGRMNEWVGFYNKVMGFTNMKEAVGDDIATEYSALMSKVVADGTLKVKFAIQEPALAKKKSAIDEYLEFYGGAGVQHIALNTGDIVETVRTMRAAGVQFLDTPDSYYDTLGEWVGDTRVPVDTLRELKILADRDEDGYLLQIFTKPVQDRPTVFFEIIERHGSMGFGKGNFKAIFEAIEREQEKRGNL
- 1/1A [1, 6]: 18.0
- 1/1F [1, 6]: 52.0
- TTN [1, 6]: 2480 ± 30
- 1/1A [1, 7]: 19.5
- 1/1F [1, 7]: 47.0
- TTN [1, 7]: 3100 ± 60
- 1/1A [1, 8]: 20.0
- 1/1F [1, 8]: 55.0
- TTN [1, 8]: 4290 ± 50
- 1/1A ([1]; NaN3 (20 μL, 1M)): 14.0
- 1/1F ([1]; NaN3 (20 μL, 1M)): 52.0
- TTN ([1]; NaN3 (20 μL, 1M)): 1550 ± 40
- 1/1A ([1]; OD600 = 10): 16.4
- 1/1F ([1]; OD600 = 10): 48.0
- TTN ([1]; OD600 = 10): 1940 ± 20
- 1/1A ([1]; initial conditions): 15.5
- 1/1F ([1]; initial conditions): 54.0
- TTN ([1]; initial conditions): 1340 ± 40
- 1N/1A (ratio of 1N to 1A among products) [2]: 15.5
- 1N/1F (ratio of 1N to 1F among products) [2]: 53.8
- TTN (total turnover) [2]: 1340 ± 40
- TTN (total turnover) ([2]; listed as Sav HppD Az1): 1340
- activity and enantioselectivity [3]: higher activity but lower enantioselectivity than Sav HppD Az2
- improvement in catalytic efficiency (kcat/KM) compared to the wild-type enzyme [4]: around 2 fold

B2: HppD Az2: septuple mutant Sav HppD V189A N191A S230L P243G N245F Q255P L367I, SEQ ID NO: 3 (protein)
chain: MTQTTHHTPDTARQADPFPVKGMDAVVFAVGNAKQAAHYYSTAFGMQLVAYSGPENGSRETASYVLTNGSARFVLTSVIKPATPWGHFLADHVAEHGDGVVDLAIEVPDARAAHAYAIEHGARSVAEPYELKDEHGTVVLAAIATYGKTRHTLVDRTGYDGPYLPGYVAAAPIVEPPAHRTFQAIDHCAGAVELGRMNEWVGFYNKVMGFTNMKEFVGDDIATEYSALMLKVVADGTLKVKFGIFEPALAKKKSPIDEYLEFYGGAGVQHIALNTGDIVETVRTMRAAGVQFLDTPDSYYDTLGEWVGDTRVPVDTLRELKILADRDEDGYLLQIFTKPVQDRPTVFFEIIERHGSMGFGKGNFKAIFEAIEREQEKRGNL
- 1/1A [1, 9]: 19.3
- 1/1F [1, 9]: 30.6
- TTN [1, 9]: 490 ± 20
- 1/1A [1, 8]: 7.0
- 1/1F [1, 8]: 18.0
- TTN [1, 8]: 260 ± 30
- 1/1A [1, 10]: 21.0
- 1/1F [1, 10]: 34.0
- TTN [1, 10]: 1820 ± 50
- 1N/1A (ratio of 1N to 1A among products) [2]: 19.3
- 1N/1F (ratio of 1N to 1F among products) [2]: 30.6
- TTN (total turnover) [2]: 490 ± 20
- TTN (total turnover) ([2]; listed as Sav HppD Az2): 490
- improvement in catalytic efficiency (kcat/KM) compared to the wild-type enzyme [4]: around 2 fold

B3: Sav HppD: (4-hydroxyphenyl)pyruvate dioxygenase from Streptomyces avermitilis, SEQ ID NO: 1, Uniprot Q53586 (protein, listed as Streptomyces sp.)
chain: MTQTTHHTPDTARQADPFPVKGMDAVVFAVGNAKQAAHYYSTAFGMQLVAYSGPENGSRETASYVLTNGSARFVLTSVIKPATPWGHFLADHVAEHGDGVVDLAIEVPDARAAHAYAIEHGARSVAEPYELKDEHGTVVLAAIATYGKTRHTLVDRTGYDGPYLPGYVAAAPIVEPPAHRTFQAIDHCVGNVELGRMNEWVGFYNKVMGFTNMKEFVGDDIATEYSALMSKVVADGTLKVKFPINEPALAKKKSQIDEYLEFYGGAGVQHIALNTGDIVETVRTMRAAGVQFLDTPDSYYDTLGEWVGDTRVPVDTLRELKILADRDEDGYLLQIFTKPVQDRPTVFFEIIERHGSMGFGKGNFKALFEAIEREQEKRGNL
- 1A % (yield of 1A) ([5]; no azide addition): 6.5%
- 1F % (yield of 1F) ([5]; no azide addition): 2.2%
- 1A % (yield of 1A) [5, 11]: 10.0%
- 1F % (yield of 1F) [5, 11]: 3.7%
- 1N % (yield of 1N) ([5]; whole E. coli cells OD600=40, 1NF, NaN3, Fe2+, room temperature, 24 hours): 33.0 ± 2.0%
- 1N/1A (ratio of 1N to 1A among products) [2]: 3.0
- 1N/1F (ratio of 1N to 1F among products) [2]: 9.0
- TTN (total turnover) [2]: 250 ± 10
